From patent US20190233512A1 (SUTRO BIOPHARMA, published 2019)

Experiments:
[1] = target: T1, Cynomolgus folate receptor alpha (cynomolgus monkey, UniProt P15328 25-234 (human entry)); test: FACS, CHO-cFOLR1 cells
T1 construct: Stably expressed on CHO cells (CHO-cFOLR1); also called cynomolgus FOLR1; CHO-cFOLR1

[2] = target: T2, Human folate receptor alpha (hFOLR1) (human, UniProt P15328 25-234); test: FACS, CHO-hFOLR1 cells
T2 construct: Stably expressed on CHO cells (CHO-hFOLR1) for flow cytometry; endogenous on FOLR1-positive KB and Igrov1 cells in the killing assay; also called human FOLR1; FolRα
T2 sequence (P15328 25-234 limits assumed): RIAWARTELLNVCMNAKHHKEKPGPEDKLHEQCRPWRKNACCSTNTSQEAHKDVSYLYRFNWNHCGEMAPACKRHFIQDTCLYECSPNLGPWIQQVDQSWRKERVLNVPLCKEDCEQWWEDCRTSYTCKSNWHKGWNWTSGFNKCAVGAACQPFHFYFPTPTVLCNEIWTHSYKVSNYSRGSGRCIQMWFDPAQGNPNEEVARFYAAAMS
Description: CHO cells were transfected to stably express human (CHO-hFOLR1), cynomolgus (CHO-cFOLR1), or mouse (CHO-mFOLR1) target molecule FOLR1 on the cell surface. Parental CHO cells were used as a negative control to determine background binding levels. Parental CHO and stably transfected CHO-hFOLR1, CHO-cFOLR1, and CHO-mFOLR1 cells were cultured in Ham's F-12: high glucose DMEM (50:50) (Corning, Cellgro-Mediatech) supplemented with 10% heat-inactivated fetal bovine serum (Corning, Cellgro-Mediatech), 1% Penicillin/Streptomycin (Corning, Cellgro-Mediatech) and 2 mmol/L-glutamax (Life Technology).
A mixture of fluoresecent-labeled parental CHO cells and unlabeled CHO-hFOLRlcells were prepared as follows. Parental CHO cells were washed twice in PBS and incubated in PBS containing with 1 nM CellTrace™ Oregon Green488® (Life Technologies) at 37° C. for 30 minutes. Labeled parental CHO cells were then washed 2× with Ham's F-12 media and 2× with FACS buffer (PBS with 1% bovine serum albumin). Unlabeled CHO-hFOLR1 cells were similarly washed and prepared. Labeled parental CHO and unlabeled CHO-hFOLR1 cells were combined at 1:1 ratio and seeded at 50 μL per well (200,000 cells per well) in 96 well polypropylene plates. Cells were mixed with 50 μL of test antibodies (i.e., anti-FOLR1 variants) serially diluted in FACS buffer and incubated on ice for 60 mins. Cells were washed with FACS buffer and incubated on ice for 60 mins with 100 μL FACS buffer containing 2.5 μg/mL R-Phycoerythrin-conjugated goat anti-Human IgG (Jackson ImmunoResearch Laboratories, West Grove, Pa.). Cells were washed twice with FACS buffer, fixed in 2% paraformaldehyde in PBS (Santa Cruz Biotechnology; Dallas, Tex.) for 10 mins on ice in the dark, and analyzed using the BD LSR II Flow Cytometer (BD Biosciences; San Jose, Calif.). Data were analyzed using FlowJo® software (FlowJo, LLC; Ashland, Oreg.) to determine mean fluorescence intensities. Binding constants were calculated using the statistical software, GraphPad Prism (GraphPad Software; La Jolla, Calif.) using the nonlinear regression equation, one site-specific binding with Hill slope. Secondary antibody alone was used as a control, in addition to measuring non-specific antibody binding to CHO parental cells.

[3] = target: T3, Murine folate receptor alpha (mouse, UniProt P35846 25-232); test: FACS, CHO-mFOLR1 cells
T3 construct: Stably expressed on CHO cells (CHO-mFOLR1); also called mouse FOLR1; CHO-mFOLR1
T3 sequence (P35846 25-232 limits assumed): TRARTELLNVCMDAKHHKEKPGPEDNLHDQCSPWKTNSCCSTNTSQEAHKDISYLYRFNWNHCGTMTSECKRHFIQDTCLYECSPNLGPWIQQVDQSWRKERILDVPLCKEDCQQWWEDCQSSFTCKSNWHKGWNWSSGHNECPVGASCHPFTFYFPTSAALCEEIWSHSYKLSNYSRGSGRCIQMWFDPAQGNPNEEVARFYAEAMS

[4] = target: FOLR1 on FOLR1-positive Igrov1 cells (UniProt P15328 25-234, limits assumed); test: cell-based or functional assay
Chain of FOLR1 on FOLR1-positive Igrov1 cells (P15328 25-234 limits assumed): as the sequence (P15328 25-234 limits assumed) above

T1 sequence (P15328 other isoform, or with tags, fused parts or gaps limits assumed): as the sequence (P15328 25-234 limits assumed) above, with I2T, W4R, R37K, Q117R, A146P, H171Y counted along it

Row | Binder | Bmax [1] [MFI] | Bmax [2] [MFI] | Bmax [3] [MFI] | Igrov 2° Antibody Cell Killing, Nb-SC239: EC50 [4] [nM] | Igrov 2° Antibody Cell Killing, Nb-SC239: span (%) [4] [%]
1 | SRP1848-E03 (antibody, V domains shown, VH/VL only; Fc-bearing IgG format with trastuzumab LC, HIS/FLAG-tagged, cell-free expressed; constant regions not tied; also called Antibody 33) VH: EVQLVESGGGLAQPGGSLRLSCAASGFNIGNYYIHWVRQAPGKGLEWVGGITPRDGFTDYADSVKGRFTISADTSKNTAYLQVNSLRAEDTAVYYCARGSWSWPAGHSYYLDYWGQGTLVTVSS VL: not shown | 17400 | 26700 | 5940 |  | 
2 | SRP1848-E06 (antibody, V domains shown, VH/VL only; Fc-bearing IgG format with trastuzumab LC, HIS/FLAG-tagged, cell-free expressed; constant regions not tied; also called Antibody 35) VH: EVQLVESGGGLVQPSGSLRLSCAASGFNINRYYIHWVRQAPGKGLEWVGGITPNDGYTDYADSVEGRFTTSADTSKNTAYLQMNSLRAEDTAVYYCARGTWSWPSGHSYYLDYWGQGTLVTVSS VL: not shown | 15800 | 25600 | 2350 |  | 
3 | SRP2060-E10 (antibody, V domains shown) VH: EVQLLESGGGLVQPGGSLRLSCAFSGFSLSTFGMGVGWVRQAPGKGLEWVSHIWWDDDKYYHPALKGRFTISKDNSKNTVYLQMNSLRAEDTAVYYCGRNHFPHYYGSSHWYFNVWGQGTTVTVSS VL: EIVMTQSPATLSLSPGERATLSCKASQDINSYLSWYQQKPGQAPRLLIYRANRLVDGIPARFSGSGSGTDYTLTISSLEPEDFAVYYCLQYDEFPYTFGGGTKVEIK |  |  |  | 0.061 | 68
4 | SRP1848-A01 (antibody, V domains shown, VH/VL only; Fc-bearing IgG format with trastuzumab LC, HIS/FLAG-tagged, cell-free expressed; constant regions not tied; also called Antibody 1) VH: EVQLVESGGGLVQPGGSLRLSCAASGFNITRYSIHWVRQAPGKGLEWVAGILPESGGTSYADSVKGRFTISADTSKNTAYLQMNSLRAEDTAVYYCARHIYPWDWFSNYVLDYWGQGTLVTVSS VL: not shown | 22600 | 25900 | 16500 |  | 
5 | SRP1848-D03 (antibody, V domains shown, VH/VL only; Fc-bearing IgG format with trastuzumab LC, HIS/FLAG-tagged, cell-free expressed; constant regions not tied; also called Antibody 25) VH: EVQLVESGGGVVQPGGSLRLSCAASGFNIRYFSIHWVRQAPGKGLEWVGDIFPNDGSTDYADSVKGRFTISADTSKNTAYLQMNSLRAEETAVYYCARGHWSWPSGYWYYLDYWGQGTLVTVSS VL: not shown | 14100 | 26000 | 3170 |  | 
6 | SRP1848-G04 (antibody, V domains shown, VH/VL only; Fc-bearing IgG format with trastuzumab LC, HIS/FLAG-tagged, cell-free expressed; constant regions not tied; also called Antibody 49) VH: EVQLVESGGGLVQPGGSLRLSCAASGFNIHSTDIHWVRQAPGKGLEWVAYITPAGGATFYADSVKGRFTISADTSKNTAYLQMNSLRAEDTAVYYCARYPYWFAGYMDYWGQGTLVTVSS VL: not shown | 12500 | 25200 | 2000 |  | 
7 | SRP1848-G06 (antibody, V domains shown, VH/VL only; Fc-bearing IgG format with trastuzumab LC, HIS/FLAG-tagged, cell-free expressed; constant regions not tied; also called Antibody 50) VH: EVQLVESGGGLVQPGGSLRLSCAASGFNIRSTDIHWVRQAPGKGLEWVAYITPAGGATYYADNVKGRFTISADTSKNTAYLQMNSLRAEDTAVYYCARQPYWFAGYMDYWGQGTLVTVSS VL: not shown | 12800 | 25800 | 1860 |  | 
8 | SRP1848-G10 (antibody, V domains shown, VH/VL only; Fc-bearing IgG format with trastuzumab LC, HIS/FLAG-tagged, cell-free expressed; constant regions not tied; also called Antibody 53) VH: EVQLVESGGGLVQPGSSLRLSCAASGFNIRSTDIHWVRQAPGKGLEWVAYITPAGGATYYADSVKGRFTISADTSKNTAYLQMNSLRAEDTAVYYCARYPYWFAGYIDYWGQGTLVTVSS VL: not shown | 14200 | 25300 | 2890 |  | 
9 | SRP1848-G07 (antibody, V domains shown, VH/VL only; Fc-bearing IgG format with trastuzumab LC, HIS/FLAG-tagged, cell-free expressed; constant regions not tied; also called Antibody 51) VH: EVQLVESGGGLVQPGGSLRLSCAASGFNIHSTDIHWVRQAPGKGLEWVAYITPAGGATWYADSVKGRFTISADTSKNTAYLQMNSLRAEDTAVYYCARYPFWFAGYMDYWGQGTLVTVSS VL: not shown | 13700 | 24900 | 1980 |  | 
10 | SRP1848-G09 (antibody, V domains shown, VH/VL only; Fc-bearing IgG format with trastuzumab LC, HIS/FLAG-tagged, cell-free expressed; constant regions not tied; also called Antibody 52) VH: EVQLVESGGGLVQPGGSLRLSCAASGFNIRGTDIHWVRQAPGKGLEWVAYITPAGGATFYADSVKGRFTISADTSKNTAYLQMNSLRAEDTAVYYCARHEYWFSGYMDYWGQGTLVTVSS VL: not shown | 17700 | 25100 | 2180 |  | 
11 | SRP1848-G11 (antibody, V domains shown, VH/VL only; Fc-bearing IgG format with trastuzumab LC, HIS/FLAG-tagged, cell-free expressed; constant regions not tied; also called Antibody 54) VH: EVQLVESGGGLVQPGGSLRLSCAASGFNISSTDIHWVRQAPGKGLEWVAYITPAGGATWYADSVKGRFTISADTSKNTAYLQMNSLRAEDTAVYYCARYPYWFSGYMDYWGQGTLVTVSS VL: not shown | 11800 | 27200 | 2740 |  | 
